Laboratory results as given in article PMC12709241.
Like-named read-outs stand apart in the source and are kept apart here.

Legend:
[1] = target: microtubules (assembled from porcine brain tubulin, rhodamine-labeled, paclitaxel-stabilised) (porcine) (UniProt P02550); assay: optical trapping
[2] = target: microtubules (assembled from porcine brain tubulin, rhodamine-labeled, paclitaxel-stabilised) (porcine) (UniProt P02550); assay: optical trapping; remark: listed apart in the source

mean detachment force (single molecule) [1]: 6.4 pN | mean detachment force (single molecule) [2]: 6.3 pN
Substance: KinΔC (mouse KIF5B 1-888 heavy chain with bound full-length KLC2) (from UniProt Q61768 1-888; O88448 1-599) (complex)
